Patent publication US20230212587A1, “Mutant Hydroxyphenylpyruvate Dioxygenase Polypeptide, Encoding Gene Thereof and Use Therefor” (Beijing Dabeinong Biotechnology Co., Ltd., priority 2019, published 2023)
Numbering of substitutions follows the chain as printed. Numbers in names are those of the source.

B1: GmHPPD-02: native Glycine max HPPD, SEQ ID NO: 75 (protein)
chain: MPMYTPSLSAPSSNHIQPSVTLPLYITTTKLNLKQQHHTTPMPIPMCNEIQAQAQAQAQPGFKLVGFKNFVRTNPKSDRFQVNRFHHIEFWCTDATNASRRFSWGLGMPIVAKSDLSTGNQIHASYLLRSGDLSFLFSAPYSPSLSAGSSAASSASIPSFDAATCLAFAAKHGFGVRAIALEVADAEAAFSASVAKGAEPASPPVLVDDRTGFAEVRLYGDVVLRYVSYKDAAPQAPHADPSRWFLPGFEAAASSSSFPELDYGIRRLDHAVGNVPELAPAVRYLKGFSGFHEFAEFTAEDVGTSESGLNSVVLANNSETVLLPLNEPVYGTKRKSQIETYLEHNEGAGVQHLALVTHDIFTTLREMRKRSFLGGFEFMPSPPPTYYANLHNRAADVLTVDQIKQCEELGILVDRDDQGTLLQIFTKPVGDRPTIFIEIIQRIGCMVEDEEGKVYQKGACGGFGKGNFSELFKSIEEYEKTLEAKRTA
modifications: Glycine max; GmHPPD Amino Acid Sequence
B2: GmHPPDm-F372A-02: Glycine max HPPD mutant F372A, SEQ ID NO: 78 (protein)
chain: B1 chain with F425A
modifications: GmHPPDm-F372A Amino Acid Sequence
B3: CaHPPD-02: native Cicer arietinum HPPD, SEQ ID NO: 81 (protein, listed as Cicer arietinum)
chain: MGTIETQTGFKLVGFNNFVRTNPKSDRFKVKRFHHVEFWCPDATNTARRFSWGLGMPIVAKSDLSTGNQTHASYLLRSGDLNFLFTAAYSPSISLSAPHPTASIPSFSAPTSFAFSASHGLGVRAVAIEVDDAEFAYTTSVNHGAIPSSPPVVLDNRVKLAEVQLYGDVVLRYVSYNDPIETSNPNPNHWFLPGFEPVEETSSNQSIDFGIQRLDHAVGNVPELSSALNYVKQFTGFHEFAEFTAEDVGTSESGLNSTVLANNEETVLLPMNEPVYGTKRKSQIQTYLEHNEGAGLQHLALMSNDIFKTLREMRKRSGIGGFEFMPSPPPTYYSNLKKRVGDVLNDEQIKECEELGILVDKDDQGTLLQIFTKPVGDRPTIFIEIIQRVGCMLKDDEGKEYQKGGCGGFGKGNFSELFKSIEEYEKTLEIKRTA
modifications: CaHPPD Amino Acid Sequence
B4: CaHPPD-F372A-02: Cicer arietinum HPPD mutant F372A, SEQ ID NO: 84 (protein)
chain: B3 chain with F371A
modifications: CaHPPDm-F372A Amino Acid Sequence
B5: GsHPPD-02: native Gossypium hirsutum HPPD, SEQ ID NO: 33 (protein, listed as Gossypium hirsutum)
chain: MVQTNQSGSGNDFKLVGFSNFVRSNPKSDRFTVKRFHHIEFWCTDATNVARRFSWGLGMQFVAKSDLSTGNLTHASYLLRSRDLNFLFTAPYSPSIAVAQNLSPQSTASIPSFDHSLCRSFAATHGLGVRAIAIEVDDAETAFTTSVTHGALPFCPPTPLGDVATIAEVKLYGDVVLRYVSYTTTINSDHDFLPGFEKIEDTLSYPLDYGLRRLDHAVGNVPELGPAVSYVKSFTGFHEFAEFTAEDVGTSESGLNSVVLANNEEMVLLPMNEPVFGTKRKSQIQTYLEHNEGAGVQHLALVSEDIFKTLREMRKRSFVGGFEFMPSPPPTYYKKLKQRAGDILSDEQIKECEELGILVDRDDQGTLLQIFTKPVGDRPTIFIEIIQRIGCMVKDEEGKQYQKGGCGGFGKGNFSELFKSIEEYEKSLEAKQSQNP
modifications: GsHPPD Amino Acid Sequence
B6: GsHPPDm-F372A-02: Gossypium hirsutum HPPD mutant F372A, SEQ ID NO: 36 (protein)
chain: B5 chain with F371A
modifications: GsHPPDm-F372A Amino Acid Sequence

System: Arabidopsis thaliana T1 plants
Experiment: Topramezone tolerance of transgenic Arabidopsis thaliana T1 plants (pesticide damage grade by bleached leaf area, score, resistance evaluation)
Type: in vivo
Conditions: HPPDs from different species; number of plants (of 16) in this grade; topramezone 25 g ai/ha (1x), 7 DAT
Method in brief: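 Herbicide tolerance was judged per plant on a bleaching scale (grade 0 no bleaching to grade 3 fully bleached) 7 DAT. Topramezone doses were 0, 25, 50 and 100 g ai/ha on 18-day-old T1 and wild-type plants.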

Molecule | Classification and statistics of pesticide damage grade Grade 0 | Classification and statistics of pesticide damage grade Grade 1 | Classification and statistics of pesticide damage grade Grade 2 | Classification and statistics of pesticide damage grade Grade 3
B1 | 0 | 0 | 0 | 16
B2 | 0 | 12 | 4 | 0
B3 | 0 | 0 | 0 | 16
B4 | 0 | 13 | 3 | 0
B5 | 0 | 0 | 0 | 16
B6 | 16 | 0 | 0 | 0

Same assay, conditions: HPPDs from different species; number of plants (of 16) in this grade; topramezone 100 g ai/ha (4x), 7 DAT

Molecule | Classification and statistics of pesticide damage grade Grade 0 | Classification and statistics of pesticide damage grade Grade 1 | Classification and statistics of pesticide damage grade Grade 2 | Classification and statistics of pesticide damage grade Grade 3
B1 | 0 | 0 | 0 | 16
B2 | 0 | 0 | 0 | 16
B3 | 0 | 0 | 0 | 16
B4 | 0 | 0 | 0 | 16
B5 | 0 | 0 | 0 | 16
B6 | 0 | 0 | 0 | 16

Same assay, conditions: HPPDs from different species; score for pesticide damage 0-100; topramezone 25 g ai/ha (1x), 7 DAT

Molecule | Scores
B1 | 100
B2 | 42
B3 | 100
B4 | 40
B5 | 100
B6 | 0

Same assay, conditions: HPPDs from different species; score for pesticide damage 0-100; topramezone 100 g ai/ha (4x), 7 DAT

Molecule | Scores
B1 | 100
B2 | 100
B3 | 100
B4 | 100
B5 | 100
B6 | 100

Same assay, conditions: HPPDs from different species; topramezone 25 g ai/ha (1x), 7 DAT

Molecule | Resistance evaluation
B1 | non-resistant (non-resistant plants (scores 68-100))
B2 | poorly resistant (poorly resistant plants (scores 34-67))
B3 | non-resistant (non-resistant plants (scores 68-100))
B4 | poorly resistant (poorly resistant plants (scores 34-67))
B5 | non-resistant (non-resistant plants (scores 68-100))
B6 | highly resistant (highly resistant plants (scores 0-15))

Same assay, conditions: HPPDs from different species; topramezone 100 g ai/ha (4x), 7 DAT

Molecule | Resistance evaluation
B1 | non-resistant (non-resistant plants (scores 68-100))
B2 | non-resistant (non-resistant plants (scores 68-100))
B3 | non-resistant (non-resistant plants (scores 68-100))
B4 | non-resistant (non-resistant plants (scores 68-100))
B5 | non-resistant (non-resistant plants (scores 68-100))
B6 | non-resistant (non-resistant plants (scores 68-100))
